From the DeepSol protein solubility set

Experiment: soluble on expression in E. coli; label from the status in PepcDB or PDB records

| Sequence | soluble on expression in E. coli |
| --- | --- |
| MTGNVLNYYAGGNTARGFHNLYEENLKGLDRLFILKGGPGTGKSSLIKAIGREWIEKGYDIEFLHCSSDNKSVDGVIIPKLKVGIVDGTSPHVIEPKMPGVVEEYINLGIAWDSDKLRKQKLEIERFVSEASKAFQSAYARFKEALVIHDEWEKIYIDNIDFNKANELTNQLIQKLFADKSGRQSLVKHRFLGAATPKGAVDFVPNLTEGLPHRYFIKGRPGSGKSTMLKKLAKAAEEKGFEVEVYHCGFDPNSLDMVIVRELGFAIFDSTAPHEYFPSREGDEIIDMYALIVTPGTDEKYAKEIRDVSIQYKAKMNEAMSFLAKAKSIRDKLERIYIAAMDFSIVDAYKEEIQKEFERIAATVIEKQQ | not soluble |
| SLLCIALALGILVKYQNSQDVSSVKPDYFIDKQEDLISLNKDHYEIGIFQENEFDNNKSVSILEQKIQEIDDLNTSLNEQNLSSVEQNLSLEQNQSLEQNFILKDTNLTQDQNLTFNEDIHLNKISKKPKLAIIIDDMANASQVRGLKALNLKLNPSFFPPDKNHSETPKLALKFDFYMVHLPLAAINYNKPELDTLNPNDSKERIFKKIKQIKKDFKDLRYINNHTGSLFTSNEEAMRKLYEVLKNQNIFFVDSKTIGNSKANKIAKELNVPYIQRDVFLDNEDDVNYVKKQLESAVKLTQKKGFVIAIGHPRKNTFKALEQSKDLLKSVDLVYLSEIYGK | soluble |
| MSKYAILGLVLVGTVASLDFIGRTQSAAIKGRLVCEGKPASGVKVKLMESDNSFGPGFLDSDDKMASGKADSHGEFNLSGSTKEITGIEPYLVVFHDCKDGITPCQRVFRVNVPKSYTNSGSSAKKTYDAGVIELAGKYPGETRSCLN | not soluble |
| MGSDKIHHHHHHMKNIYLFIVSLFFFYTGCDTQQTKYPFSVETVLAKAGNNRKELEKALDYFYKQGDSIKIKAIEFLVAHMDIHYSETYYWKTREGKRVDFSEFDYANLETAVKAIDSMRKKYGSLDFQDTIIYDVNSLTGKYLINNVNHAVDTWRLSEYKDIPFNDFCEYILPYRVTVEPVTEWRKEYCKRYHWLTDSLQNKPLENVLDYAAIDYKDWFTFTYGSETRNEPLSRLSAQQLLFRKKGACEDIAALETFIFRSQGIPAAYISVPLWATSAGAHFSNTVFDTKMKPVKLDVTTHAVVDHPLDREPSKVIRYTYSSQPGTLASKEKEECIPTGFLQKTNYIDVTHEYWETSDVTIPLFNDTTHIIYACMFSMGRWNAEWWGERMENSVTFHNMPRGVVILPMIYKEHQLIPIGYPIVNGYNHQLYLVPDLLHTMTVEIEEQDRYLRFRPDKKYELFYWDNAWISLGTQVATMDADCLQFNQVPQNVLMLLVPEYSERKERPFIIMPDGTRYWW | not soluble |
| SYMERMDKRALISFWESVEHLKNANKNEIPQLVGEIYQNFFVESKEISVEKSLYKEIQQCLVGNKGIEVFYKIQEDVYETLKDRYYPSFIVSDLYEKLLIKEEEKHASQMISNKDEMGPRDEAGEEAVDDGTNQINEQASFAVNKLRELNEKLEYKRQALNSIQNAPKPDKKIVSKLKDEIILIEKERTDLQLHMARTDWWCENLGMWKASITSGEVTEENGEQLPCYFVMVSLQEVGGVETKNWTVPRRLSEFQNLHRKLSECVPSLKKVQLPSLSKLPFKSIDQKFMEKSKNQLNKFLQEETEEDSDLSDYGDDVDGRKDALAEPCFMLIGEIFELRGMFKWVRRTLIALVQVTFGRTINKQIRDTVSWIFSEQMLVYYINIFRDAFWPNGKLAPPTTIRSKEQSQETKQRAQQKLLENIPDMLQSLVGQQNARHGIIKIFNALQETRANKHLLYALMELLLIELCPELRVHLDQLKAGQV | soluble |
| MSPIPLPVTDTDDAWRARIAAHRADKDEFLATHDQSPIPPADRGAFDGLRYFDIDASFRVAARYQPARDPEAVELETTRGPPAEYTRAAVLGFDLGDSHHTLTAFRVEGESSLFVPFTDETTDDGRTYEHGRYMDVDPAGADGGDEVALDFNLAYNPFCAYGGSFSCALPPADNHVPAAITAGERVDADLEHHHHHH | soluble |
| MAHHHHHHMADTHFFAEANVLDDPRETTNAYKEIKYDLLRIERSINTEVRKRIEANKNIQQLIEHTANDMINKVLNKITTKIENISFELDKIIKKCDELEKMVGQIRLTLPTKIQTEMMGLKREVSDFFILLNKYANNRKKRNNVLFSKMENMNAYVSNKIHSEVSFTEDDFLFFRRESAKLLASDSDDEQGFRDAFLQEVEEIRDALALTVKAREQSDDDIIQVGAVRCGGAVQRCDVMRWDETRWAYFR | not soluble |
| MIGTAVKELLLEKQETFLVPAENVANVMCLNPLSHAALVLSQVRYSKIPVLDKGDRFVGLIGLTDVVDKMFDLTSVDFEKLNEFTVADVMEVNVPVIGESWDLEEVLHLLVDASFLPVVDDNQRFKGIITRKEILKAVNHMAHELEKHHLVLPKSEEEMKVI | not soluble |
| MSLLTEQQRRELDWEKTDGLMPVIVQHAVSGEVLMLGYMNPEALDKTLESGKVTFFSRTKQRLWTKGETPGNFLNVVSIAPDCDNDTLLVLANPIGPTCHKGTSSCFGDTAHQWLFLYQLEQLLAERKSADPETSYTAKLYASGTKRIAQKVGEEGVETALAATVHDRFELTNEASDLMYHLLVLLQDQGLDLTPVIENLRKRHQEGHHHHHH | soluble |
| MSLTHVIWDMGETLNTVPNTRYDHHPLDTYPEVVLRKNAKETLEKVKQLGFKQAILSNTATSDTEVIKRVLTNFGIIDYFDFIYASNSELQPGKMEKPDKTIFDFTLNALQIDKTEAVMVGNTFESDIIGANRAGIHAIWLQNPEVCLQDERLPLVAPPFVIPVWDLADVPEALLLLKKISEGHHHHHH | soluble |
| MSKELFLEIGTEEIPAGFLPKAMADMEAIVTKELENARLAFGEVKTFATPRRLALVVKGLPTVQPDAEITALGPARNIAFGPDGTPSKAAEGFARGQGVDVASLTLVSTEKGEYVAAVRKESGRPVPDLLAEILPRLVGGIPFRKSMRWADLDVRFARPIHWIVALFDGVVVPFAFGNVQSGNVSRGHRFMANQPFPVRDFAHYLDECERHFVIPDPERRKETIRREIHRVAKTAGGHLLPDEGLLDEVAYLVEYPSVVHGTFSPDFLKVPREVLITSMRSHQRYFSIVDDAGKLMPGFITINNTLTEDPSVVVKGNERVLRARLSDARFFFEEDQKVKLETRVESLKNVVYQQKLGTSYEKMERFRALAEGLADLLNPAVKAKTSRAAFLCKADLVSGMVGEFPEVQGIMGREYALLQGEDAEVAAAIAEHYLPTQAGGDLPASDIGAFVSIADKLDTICGCFGVGLIPTGSADPYALRRSALGIINIILDRGCRLSLEGEIGKALELLSAKLTRPAAEVMADVLEFFRGRFVNLMADRYPADAVDAAIAAGFDD | not soluble |
| MGSDKIHHHHHHMLRGLWGAAAGMITQQQRQEMLTNNLANVNTPGYKADQAAIRAFPNMLIAAMNTGNVPKGVAPVIGELTTGVYLQERMPNFRQGDLVETQNNTDVALLQGVMPTNEENGQPWALFYTVQNENGEVRYTRNGNFTVDGDGFLTTGDGFYVLGTDGNPLQVNNEWFNVDGDGMITDEAGAAIGQINVVVAEDPMQLVKEGNGLLRFEGDGELPTGVGNAAVNYQLQQGFIERSNVDAAQTMTEMMQAYRTFEANQQVLRAYDESLGKAVNEVGRIG | not soluble |
| SSSKFQQVEQDVKAIEVSLSARIGVSVLDTQNGEYWDYNGNQRFPLTSTFKTIACAKLLYDAEQGKVNPNSTVEIKKADLVTYSPVIEKQVGQAITLDDACFATMTTSDNTAANIILSAVGGPKGVTDFLRQIGDKETRLDRIEPDLNEGKLGDLRDTTTPKAIASTLNKFLFGSALSEMNQKKLESWMVNNQVTGNLLRSVLPAGWNIADRSGAGGFGARSITAVVWSEHQAPIIVSIYLAQTQASMEERNDAIVKIGHSIFDVYTSQSR | soluble |
| MGSDKIHHHHHHMNFPRPLVPATLVQRYKRFLFDAILADGTAITGSCPNTGSMRGLTIPGSPIWLSEHDSPTRKYRHMLEIVEADGTLVGINTGLPNRIAEEAIMAGQVGNLHTYGTLRREQRYGRNSRIDILLSDAEKGLAYVEVKNVHFSRVRGLAEFPDSPTQRGAKHLEELGDMVEAGHRAIMLYLIQRGDCSRFRICRELDPVYARAFERASARGVEAYAVKCAVSPGQIVAAGPIVVDEPVPAVL | not soluble |
| SQTREDSVYLAKLAEQAERYEEMVENMKAVASSGQELSVEERNLLSVAYKNVIGARRASWRIVSSIEQKEESKEKSEHQVELIRSYRSKIETELTKISDDILSVLDSHLIPSATTGESKVFYYKMKGDYHRYLAEFSSGDAREKATNSSLEAYKTASEIATTELPPTHPIRLGLALNFSVFYYEIQNSPDKACHLAKQAFDDAIAELDTLSEESYKDSTLIMQLLRDNLTLWTSDISESGQEDQQQQQQQQQQQQQQQQQAPAEQTQGEPTK | soluble |
| MGSDKIHHHHHHMETFGGQVGRQEVPESSIDRYRGKLPNQLLTYWAEHGWCGYGDGIFWTVNPQEYDAVVASWLEGTKFETFDAYHLIARSAFGDLYLWGEEIGASLKITSILSRYTTHKSLCLGSQMDKGLQSFILSRKVGSNDYGDLFRPARKKLGTLHHDEMYGFVPALMLGGADTLDHLEKVKAVEHLVLLSQLSDLESYDFQDL | not soluble |
| MLEALKTANKTVGMKQSLKAVESLKAKQVFIAKDADEHVVARIKELCIKNNIPIVYVDTMKQLGKACNIDVGASVACLL | not soluble |
| MSCEIVVYPAQDSTTTNIQDISIKNYFKKYGEISHFEAFNDPNSALPLHVYLIKYASSDGKINDAAKAAFSAVRKHESSGCFIMGFKFEVILNKHSILNNIISKFVEINVKKLQKLQENLKKAKEKEAENHHHHHH | soluble |
| MSLTPEIPPKNFTPHLPEDYDARISGVLPYYSSFHQETINLVKSLPSSPKIWMDTGCGTGSLINKAIEEFLDTKFLLLDPSESMLEQAKGKLSFYPDGKVEFLKASSTQEFSQELEEKPDVITAIQCHHYLSLEDRSRATRVCYNLLKEGGIYITFENIRPLTEEGVAVGKRYWGKFQSLHGRKEKEIQTHLERFDTEYFPITVEEHLKLLRDTGFRTVELFWYSYMQAGFYCIKEGHHHHHH | soluble |
| FDAVPDLIAILDTEYRIVRANRAMAARLGITPEECVGLTCYRVIHGTDEPPSFCPYRQLLKDGIEHTEEVREDSLGGDFILSVLPLHDSKGKIIGCTHFARDIN | not soluble |
| MEGDTVHWQTHTVFNQPIPLNNSNLYLSDGALCEAVTREGAGWDSDFLASIGQQLGTAESLELGRLANVNPPELLRYDAQGRRLDDVRFHPAWHLLMQALCTNRVHNLAWEEDARSGAFVARAARFMLHAQVEAGSLCPITMTFAATPLLLQMLPAPFQDWTTPLLSDRYDSHLLPGGQKRGLLIGMGMTEKQGGSDVMSNTTRAERLEDGSYRLVGHKWFFSVPQSDAHLVLAQTAGGLSCFFVPRFLPDGQRNAIRLERLKDKLGNRSNASCEVEFQDAIGWLLGQEGEGIRLILKMGGMTRFDCALGSHAMMRRAFSLAIYHAHQRHVFGNPLIQQPLMRHVLSRMALQLEGQTALLFRLARAWDRRADAKEALWARLFTPAAKFVICKRGMPFVAEAMEVLGGIGYCEESELPRLYREMPVNSIWEGSGNIMCLDVLRVLNKQAGVYDLLSEAFVEVKGQDRYFDCAVRRLQQQLRKPAEELGREITHQLFLLGCGAQMLKYASPPMAQAWCQVMLDTRGGVRLSEQIQNDLLLRATGGVCV | not soluble |
| MSLSNHSSDIEVGHSMNLTNHFLVAMPSMKDPYFKRSVIYICEHNQDGAMGLMINAPIDITVGGMLKQVDIEPAYPQSHQENLKKPVFNGGPVSEDRGFILHRPRDHYESSMKMTDDIAVTTSKDILTVLGTEAEPEGYIVALGYSGWSAGQLEVELTENSWLTIEADPELIFNTPVHEKWQKAIQKLGISPAQLSSDAGHEGGSHHHHHH | soluble |
